Results reported in patent publication US20250027068.
Residue numbers refer to the chain shown, from its start.

B1: PRT-291 (protein)
chain: MVTSVWTKGVTPPADFTQGEDVFHAPYVANQGWYDITKTFNGKDDLLCGAATAGNMLHWWFDQNKEYIEAYLKKHPEKQKIMFGDQELLDVRKAINTKGSQKNSELFNYFRDKAFPNLSARRLGVMPDLVLDMFINGYYLNVTKTQTTDVNRTYQEKDKRGGIFDAVFTRGDQSKLLTSRHDFKEKGLKEISDLIKQELTEGKALGLSHTYANVRLNHVINLWGADFDSDGNLKAIYVTDSDSNASIGMKKYFVGVNSSGKVAISAKEIKEDNIGAQVLGLFTLSTGQDIWNQTN
B2: PRT-299 (protein)
chain: B1 chain with A14T, T17I, Q18K, V28K, N30G, L216I, N217G
B3: Ide85 (protein)
chain: MANQEIRYSEVTPYHVTSVWTKGVTPPAKFTQGEDVFHAPYVANQGWYDITKTFNGKDDLLCGAATAGNMLHWWFDQNKEKIEAYLKKHPDKQKIMFGDQELLDVRKVINTKGDQTNSELFNYFRDKAFPGLSARRIGVMPDLVLDMFINGYYLNVYKTQTTDVNRTYQEKDRRGGIFDAVFTRGDQSKLLTSRHDFKEKNLKEISDLIKKELTEGKALGLSHTYANVRINHVINLWGADFDSNGNLKAIYVTDSDSNASIGMKKYFVGVNSAGKVAISAKEIKEDNIGAQVLGLFTLSTGQDSWNQTN
B4: IdeZ2 (protein)
chain: EVVEVWPYGQNPNGKTEILSQTEDSESLQRLRDIEDFQAEKKMQNVVYTKWLDGVDVKDHDFRKIVDGNIAYYATPLLNGRGFYDINKDFNRDSDKCAAAVAANMFHYWLDINRDNVDRFLRQNPEKHGIIELPDGQLKLSDFLNTYESDHGYRDKSKLFDFISNNFNGPVWTDKLLDNYINGYAYNYKYGRTIEDPTKNTSKINFFKEVFNEKILTNNHSIRNQNEFSVLLSEALYTGKAIGLSYGPAGLRHSLGHIISVWGADLDADGNVVAIYVTDSDDKKLTIGDERVGLKRYKISTDDENRLRLTAYEETHNTGGQIRGLWTLDTGKYAWADYFDKTEQTGTDQAEQ
B5: IdeZ (protein)
chain: DDYQRNATEAYAKEVPHQITSVWTKGVTPLTPEQFRYNNEDVIHAPYLAHQGWYDITKAFDGKDNLLCGAATAGNMLHWWFDQNKTEIEAYLSKHPEKQKIIFNNQELFDLKAAIDTKDSQTNSQLFNYFRDKAFPNLSARQLGVMPDLVLDMFINGYYLNVFKTQSTDVNRPYQDKDKRGGIFDAVFTRGDQTTLLTARHDLKNKGLNDISTIIKQELTEGRALALSHTYANVSISHVINLWGADFNAEGNLEAIYVTDSDANASIGMKKYFVGINAHGHVAISAKKIEGENIGAQVLGLFTLSSGKDIWQKLS
B6: PRT-323 (protein)
chain: MTITSVWTKGVTPPTPEDFRENNEDVLHAPYVANQGWYDITKTFDGKDNLLCGAATAGNMLHWWFDQNKEEIERYLKKHPEKQKIIFNNQEWFDVKAAIDTKDSQTNSKLFNYFRDKAFPNLSARQLGVMPDLVLDMFINGYYLNLPKTQSTDVNRPYQDKDKRGGIFDAVFTRGDQTTLLTARHDLKNKGLNEISDLIKQELTEGKALALSHTYANVRINHVINLWGADFDAEGNLIAIYVTDSDANASIGMKKYAVGVNANGKVAISAKKIEGDNIGAQVLGLFTLSTGQDIWQKLS
B7: PRT-331 (protein)
chain: B6 chain with W92L, N112D, N121G, M130F, P147G, D176V, A257F, V260R, I294Q
B8: PRT-243 (protein)
chain: MVTSVWTKGVTPPANFTQGEDVFHAPYVANQGWYDITKLFNGKDDLLCGAATAGNMLHWWFDQNKDQIKRYLEEHPEKQKINFNGEQMFDVKEAIDTKNHQLDSKLFDYFKEKAFPNLSTKHLGVFPDHVIDMFINGYRLSLLNHGPTPVKEGSKDPRGGIFDAVFTRGDQSKLLTSRHDFKEKNLKEISDLIKKELTEGKALGLSHTYANGRINHVINLWGADFDSNGNLKAIYVTDSDSNPSIGMKKYFVGVNSSGKVAISAKEIKEDNIGAQVLGLFTLSTGQDSWNQTN
B9: PRT-241 (protein)
chain: B8 chain with L39T, D108E, G212V, P243A
B10: PRT-283 (protein)
chain: MVTSVWTKGVTPPAKFTQGEDVFHAPYDANQGWYDITKTFNGKDDLLCGAATAGNMLHWWFDQNKEKIEAYLKKHPDKQKIMFGDQELLDVRKVINTKGDQTNSELFNYFRDKAFPNLSARRIGVMPDLVLDMFINGYYLNVYKTQTTDVNRTYQEKDRRGGIFDAVFTRGDQSKLLTSRHDFKEKNLKEISDLIKKELTEGKALGLSHTYANVRISHVINLWGADFDSNGNLKAIYVTDSDSNASIGMKKYFVGVNSAGKVAISAKEIKEDNIGAQVLGLFTLSTGQDSWNQTN
B11: PRT-307 (protein)
chain: MQITSVWTKGVTPLTPEQFRKNNEDVIHAPYLAHQGWYDITKAFDGKDNLLCGAATAGNMLHWWFDQNKTEIEAYLSKHPEKQKIIFNNQELFDLKAAIDTKDSQTNSQLFNYFRDKAFPNLSARQLGVMPDLVLDMFINGYYLNVGKTQSTDVNRPYQDKDKRGGIFDAVFTRGDQTTLLTARHDLKNKGLNDISTIIKQELTEGRALALSHTYANVSISHVINLWGADFNAEGNLEAIYVTDSDANASIGMKKYFVGRNAHGHVAISAKKIEGENIGAQVLGLFTLSSGKDIWQKLS
B12: PRT-315 (protein)
chain: B11 chain with K21E, N112D, G147F, N236E, A249P
B13: IdeS (protein)
chain: ANQEIRYSEVTPYHVTSVWTKGVTPPANFTQGEDVFHAPYVANQGWYDITKTFNGKDDLLCGAATAGNMLHWWFDQNKDQIKRYLEEHPEKQKINFNGEQMFDVKEAIDTKNHQLDSKLFEYFKEKAFPYLSTKHLGVFPDHVIDMFINGYRLSLTNHGPTPVKEGSKDPRGGIFDAVFTRGDQSKLLTSRHDFKEKNLKEISDLIKKELTEGKALGLSHTYANVRINHVINLWGADFDSNGNLKAIYVTDSDSNASIGMKKYFVGVNSAGKVAISAKEIKEDNIGAQVLGLFTLSTGQDSWNQTN
B14: PRT-275 (protein)
chain: MVTSVWTKGVTPPTDFIYGEDVLHAPYKAGQGWYDITKLFNGKDNLLCGAATAGNMLHWWFDQNKEQIENYLKKHPEKQKIIFNNQELFDLKAAIDTKDSQLDSKLFDYFKEKAFPNLSTKHLGVFPDHVIDMFINGYRLSLLNHGPTPVKRGSKDKRGGIFDAVFTRGVQSKLLTNRHDLKNKTLKEISDLIKQELTEGKALGISHTYANGRINHVINLWGADFDAEGNLEAIYVTDSDTNPSIGMKKYFVGVNSSGKVAISAKEIEEDNIGAQVLGLFTLSTGQDIWNQTN
B15: PRT-251 (protein)
chain: MVTSVWTKGVTPPTNFTYGEDVLHAPYVANQGWYDITKTFNGKDDLLCGAATAGNMLHWWFDQNKEQIENYLKKHPEKQKINFNGEQMFDVKEAIDTKDSQLDSKLFEYFLEKAFPNLSTKHLGVFPDHVIDMFINGYRLSLLNHGPTPVKRGSKDPRGGIFDAVFTRGDQSKLLTNRHDFKEKTLKEISDLIKQELTEGKALGISHTYANVRINHVINLWGADFDAEGNLEAIAVTDSDSNASIGMKKYFVGVNSSGKVAISAKEIEEDNIGAQVLGLFTLSTGQDIWNQTN
B16: PRT-267 (protein)
chain: B15 chain with N15D, T17I, V28K, N30G, E108D, L111K, F181L, E183N, A235Y, A243P
B17: PRT-259 (protein)
chain: B15 chain with D45N, M88L, L111K, P157K, D170V, A235Y, S241T

Tests used:
[1] = target: pooled human IgG (human IgG1,2,3 and 4)

| Protein | Enzyme Activity Endpoint Assay: Fab′2 [1] [ng/µL] | Enzyme Activity Endpoint Assay: Fc [1] [ng/µL] | Enzyme Activity Endpoint Assay: IgG [1] [ng/µL] | Enzyme Activity Endpoint Assay: scIgG [1] [ng/µL] | Enzyme Activity Endpoint Assay (purified): Fab'2 (pooled human IgG) [ng/µL] | Enzyme Activity Endpoint Assay (purified): Fc (pooled human IgG) [ng/µL] | Enzyme Activity Endpoint Assay (purified): IgG (pooled human IgG) [ng/µL] | Enzyme Activity Endpoint Assay (purified): scIgG (pooled human IgG) [ng/µL] |
| --- | --- | --- | --- | --- | --- | --- | --- | --- |
| B1 | 1020 | 420 | 0 | 0 |  |  |  |  |
| B2 | 549 | 378 | 368 | 0 |  |  |  |  |
| B3 |  |  |  |  | 1130 | 615 | 0 | 0 |
| B4 |  |  |  |  | 1340 | 566 | 0 | 0 |
| B5 |  |  |  |  | 1290 | 481 | 0 | 0 |
| B6 | 130 | 256 | 235 | 743 |  |  |  |  |
| B7 | 954 | 398 | 0 | 0 |  |  |  |  |
| B8 | 967 | 430 | 25 | 0 |  |  |  |  |
| B9 |  |  |  |  | 731 | 406 | 0 | 0 |
| B10 | 380 | 271 | 186 | 91 |  |  |  |  |
| B11 | 215 | 290 | 138 | 614 |  |  |  |  |
| B12 | 981 | 408 | 0 | 0 |  |  |  |  |
| B13 |  |  |  |  | 1360 | 524 | 0 | 0 |
| B14 | 169 | 257 | 97 | 589 |  |  |  |  |
| B15 | 1070 | 444 | 0 | 0 |  |  |  |  |
| B16 | 1090 | 438 | 0 | 0 |  |  |  |  |
| B17 | 1100 | 453 | 0 | 0 |  |  |  |  |
